What all share (assay): ELISA, coated antigen, OD450
The target of experiment [1] is T1, Inhibin A (Homo sapiens (Human), UniProt P05111 233-366; P08476 311-426).
T1 sequence 1: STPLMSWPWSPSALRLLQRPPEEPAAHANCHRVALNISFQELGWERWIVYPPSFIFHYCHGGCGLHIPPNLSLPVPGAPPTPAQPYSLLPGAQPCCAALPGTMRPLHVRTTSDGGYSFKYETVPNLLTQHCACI
T1 sequence 2: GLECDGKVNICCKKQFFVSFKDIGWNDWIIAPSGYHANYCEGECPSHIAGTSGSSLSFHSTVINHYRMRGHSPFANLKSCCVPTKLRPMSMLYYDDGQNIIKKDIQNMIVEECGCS

The target of experiment [2] is T2, Latent Activin A (human, UniProt P08476 21-426, limits assumed).
T2 construct: also called INHBA latent
T2 sequence: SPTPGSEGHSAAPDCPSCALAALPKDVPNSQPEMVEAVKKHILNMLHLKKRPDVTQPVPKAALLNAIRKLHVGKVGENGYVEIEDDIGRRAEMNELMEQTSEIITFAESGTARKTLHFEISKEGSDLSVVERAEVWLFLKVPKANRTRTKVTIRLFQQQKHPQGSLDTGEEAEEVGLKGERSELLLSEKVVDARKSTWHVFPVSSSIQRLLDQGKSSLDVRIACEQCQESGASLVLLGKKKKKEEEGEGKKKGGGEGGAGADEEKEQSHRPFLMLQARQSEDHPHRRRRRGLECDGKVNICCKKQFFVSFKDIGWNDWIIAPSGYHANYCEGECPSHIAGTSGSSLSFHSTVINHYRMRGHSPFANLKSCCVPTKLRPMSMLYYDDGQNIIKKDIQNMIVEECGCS
The protocol: (§1) Antibodies were re-expressed in 40 mL cultures of Expi293 cells and purified using protein G magnetic sepharose beads (Cytiva, Marlborough, MA) to provide larger quantities for secondary screening. Secondary screening included dose responses in both functional assays described above (SMAD nuclear localization and fibroblast activations assays) as well as in binding assays to the same antigens listed in Table 3. Plates were coated with 25 μL of 3 μg/mL antigen in 384-well Maxisorp plates overnight at 4° C. with agitation. The next day, the samples in the plates were blocked with 70 μL blocking buffer (PBS+1% BSA+0.1% Tween-20) for 2 hours at room temperature. Plates were then washed three times with 100 μL of wash buffer (PBS+0.1% Tween-20). Primary antibodies in Expi293 expression medium were diluted 1:3 in blocking buffer, 25 μL added per well, and the plates were incubated for an hour at room temperature with agitation. Plates were then washed three times and 25 μL of secondary antibody (goat anti-Human IgG, HRP conjugated; Jackson Immunoresearch) diluted 1:5000 in blocking buffer was added for 30 minutes at room temperature. The wells in the plates were washed six times with wash buffer and TMB substrate was added followed by 1 M H3PO4.

Experiment [3] concerns the target T3, Mature Activin A (human, UniProt P08476 311-426).
T3 construct: also called active Activin A; INHBA mature
T3 sequence: T1 sequence 2
The protocol:
as §1

Experiment [4] has as its target T4, Activin B (Homo sapiens (Human), UniProt P09529 293-407).
T4 construct: also called Mature Activin B; mature Activin B
T4 sequence: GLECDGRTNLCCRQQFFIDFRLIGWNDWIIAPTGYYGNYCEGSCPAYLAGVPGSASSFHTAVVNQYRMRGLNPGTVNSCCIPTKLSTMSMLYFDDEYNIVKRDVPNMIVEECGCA
The protocol: as §1

Experiment [5] has as its target T1, Inhibin A. The protocol:
as §1
The source holds these as a separate data set.

Positions count from the first letter of the chain named.

The source of these data is US20250270304A1 (PHENOMIC AI, published 2025).

B1: AB432 (antibody, IgG1, V domains shown)
VH: QVQLQESGPGLVKPSQTLSLTCTVSGVSLSNVRMGVNWIRQPPGKGLEWIGYVNPSGSTDYNPSLKSRVTMSVDTSKNQFSLKVNSVTAADTAVYYCARAGYPDVWGKGTLVTVSS
VL: EIVMTQSPATLSLSPGERATLSCRASQSISSSQLAWYQQKPGQAPRLLIYGASTRATGIPARFSGSGSGTDFTLTISSLEPEDFAVYYCQQYNDRPRTFGGGTKVEIK
With B1, in experiment [1], the binding result was “no binding (tested: 1.40-fold over BSA)”. Also, the “fold-change of OD 450 over negative control (BSA)” value (shortened to “fold-change”) in experiment [2] was determined as 10.4 fold; in experiment [3], 8.86 fold; in experiment [4], 1.72 fold; in experiment [5], 0.74 fold.

B2: AB449 (antibody, IgG1, V domains shown)
VH: B1 VH with V27L, V32A, R33K, N54S, P55T, S56T, S58T, L111T
VL: DIQMTQSPSSVSASVGDRVTITCRASQGISRDLAWYQQKPGKAPKLLIYAASTLVSGVPSRFSGSGSGTDFTLTISSLQPEDFANYYCQQYVSAPPYTFGGGTKVEIK
For the molecule B2, the “fold-change” value in experiment [2] worked out at 4.95 fold; in experiment [3], 6.63 fold; in experiment [4] it was 0.76 fold; in experiment [5] it was 0.65 fold.

B3: AB346 (antibody, IgG1, V domains shown)
VH: B1 VH with V27F, S28P, N31T, V32S, V53I, S58A, L111T
VL: EIVMTQSPATLSLSPGERATLSCRASRSVSSDLAWYQQKPGQAPRLLIYDVSTRATGIPARFSGSGSGTDFTLTISSLEPEDFAVYYCQQYGSSLPPTFGGGTKVEIK
As for B3, the “fold-change” value in experiment [2] stood at 13.8 fold; in experiment [3] it was 14 fold; in experiment [4], 2.46 fold; in experiment [5], 0.58 fold.

B4: AB435 (antibody, IgG1, V domains shown)
VH: B1 VH with V27Y, S30T, N31D, V32A, M34I, V53I, S58R, L111T
VL: EIVMTQSPATLSLSPGERATLSCRASQSIGTKLAWYQQKPGQAPRLLIYDASSRVPGIPARFSGSGSGTDFTLTISSLEPEDFAVYYCQQYGSSPPVYSFGGGTKVEIK
Turning to B4, the “fold-change” value in experiment [2] stood at 6.66 fold; in experiment [3], 8.09 fold; in experiment [4] it was 0.84 fold; in experiment [5] it was 0.74 fold.

B5: AB352 (antibody, IgG1, V domains shown)
VH: B1 VH with V27F, S28P, N31T, V32S, V53I, S58A, L111T
VL: EIVMTQSPATLSLSPGERATLSCRASQSVSTHLAWYQQKPGQAPRLLIYDATNRATGIPARFSGSGSGTDFTLTISSLEPEDFAVYYCLQYTNYPWTFGGGTKVEIK
B5: the binding result in experiment [1] is given as “no binding (tested: 1.40-fold over BSA)”. Besides, the “fold-change” value in experiment [2] turned out to be 15.2 fold; in experiment [3], 16.2 fold; in experiment [4], 2.03 fold; in experiment [5], 0.61 fold.

B6: AB433 (antibody, IgG1, V domains shown)
VH: B1 VH with V27F, S28P, N31T, V32S, V53I, S58A, L111T
VL: EIVMTQSPATLSLSPGERATLSCRASQSVRTSLAWYQQKPGQAPRLLIYDTSIRAAGIPARFSGSGSGTDFTLTISSLEPEDFAVYYCQQYGNWHFGGGTKVEIK
B6: the “fold-change” value in experiment [2] is 10.5 fold; in experiment [3], 9.41 fold; in experiment [4], 2.5 fold; in experiment [5] it was 0.72 fold.

B7: AB465 (antibody, IgG1, V domains shown)
VH: B1 VH with V27A, L29V, V32A, M34T, V53I, S58R, T59I, L111T
VL: EIVMTQSPATLSLSPGERATLSCRASQTVSSHLAWYQQKPGQAPRLLIYDVSHRASGIPARFSGSGSGTDFTLTISSLEPEDFAVYYCQQYFTLPTFGGGTKVEIK
Take B7: the “fold-change” value in experiment [2] came to 5.82 fold; in experiment [3] it was 6.84 fold; in experiment [4] it was 0.87 fold; in experiment [5], 0.46 fold.

B8: AB372 (antibody, IgG1, V domains shown)
VH: QVTLRESGPALVKPTQTLTLTCTVSGFSLSTSGATVNWIRQPPGKALEWIGYITSSGRTVYNSALKSRLTISKDTSKNQVVLTMTNMDPVDTATYYCTTTKIVGATLRDYWGQGTLVTVSS
VL: DIVMTQSPDSLAVSLGERATINCKSSQSVLDTSTNRNYLAWYQQKPGQPPKLLIYGASIRAGGVPDRFSGSGSGTDFTLTISSLQAEDVAVYYCQQSYSHPPTFGGGTKVEIK
As to B8, the “fold-change” value in experiment [2] was 5.64 fold; in experiment [3], 7.16 fold; in experiment [4], 0.43 fold; in experiment [5], 0.43 fold.

B9: AB363 (antibody, IgG1, V domains shown)
VH: B8 VH
VL: DIQMTQSPSSVSASVGDRVTITCRASQGISNDLAWYQQKPGKAPKLLIYDVSNRASGVPSRFSGSGSGTDFTLTISSLQPEDFANYYCQQYDNPPSFGGGTKVEIK
For the molecule B9, the “fold-change” value in experiment [2] was 4.82 fold; in experiment [3], 7.63 fold; in experiment [4], 0.63 fold; in experiment [5] it was 0.53 fold.

B10: AB338 (antibody, IgG1, V domains shown)
VH: EVQLVESGGGLVQPGGSLRLSCAASGFTASRNYMSWVRQAPGKGLELVASISGSGDYTYYPDSVKGRFTISRDNAKNSLYLQMNSLRAEDTAVYYCARSPRGPRLLGYYYGMDVWGQGTTVTVSS
VL: DIVMTQSPLSLPVTPGEPASISCRSSQSLLHSNEKNYLHWYLQKPGQSPQLLIYDASKRASGVPDRFSGSGSGTDFTLKISRVEAEDVGVYYCVQDLHTPFTFGGGTKVEIK
B10: the “fold-change” value in experiment [2] was found to be 1.44 fold; in experiment [3], 1.94 fold; in experiment [4] it was 0.68 fold; in experiment [5], 0.9 fold.

B11: AB357 (antibody, IgG1, V domains shown)
VH: EVQLVQSGAEVKKPGASVKVSCKASGYTFPSHYISWVRQAPGQGLEWMGGMNPITGHTIYAQKLQGRGTMTTDPSTSTAYMELRSLRSDDTAVYYCARDMRYDILPGRSYYYGMDVWGQGTTVTVSS
VL: ESALTQPASVSGSPGQSITISCTGTDIRGMSVSWYQQHPGKAPKLMIYEVNQRPSGVSNRFSGSKSGNTASLTISGLQAEDEADYYCAAWDASVAGYVFGGGTKLTVL
With B11, the “fold-change” value is 6.59 fold in experiment [2], 6.99 fold in experiment [3], 2.44 fold in experiment [4] and 0.77 fold in experiment [5].

B12: AB349 (antibody, IgG1, V domains shown)
VH: QVQLQESGPGLVKPSQTLSLTCTVSGVSLSNARLGVNWIRQPPGKGLEWIGYGSVTGSTDYNPSLKSRVTMSVDTSKNQFSLKVNSVTAADTAVYYCTTSYLVDTAMVTRWGQGTLVTVSS
VL: EIVMTQSPATLSLSPGERATLSCRASQRIGSDLAWYQQKPGQAPRLLIYSASSRAPGIPARFSGSGSGTDFTLTISSLEPEDFAVYYCSTMAIPFGGGTKVEIK
Turning to B12, the “fold-change” value in experiment [2] amounted to 4.34 fold; in experiment [3] it was 5.14 fold; in experiment [4] it was 0.27 fold; in experiment [5] it was 0.22 fold.
